What was measured:
[1] = molecular target: T1, EcTopoI (topoisomerase I) (Escherichia coli DY330, UniProt P06612 1-865); assay: competition; vs labeled Consensus R; about as efficient as Consensus R; EMSA: 10 mM Tris-HCl pH 7.5, 50 mM NaCl, 6 mM MgCl2, 37 C 10 min; MST: same plus 0.05% Tween-20, 22 C; settings: protein: recombinant; single strand
[2] = molecular target: T1, EcTopoI (topoisomerase I); assay: EMSA; 6 mM Mg2+; EMSA: 10 mM Tris-HCl pH 7.5, 50 mM NaCl, 6 mM MgCl2, 37 C 10 min; MST: same plus 0.05% Tween-20, 22 C; settings: protein: recombinant; label: 5'-Cy5; single strand
[3] = molecular target: T1, EcTopoI (topoisomerase I); assay: MST; 6 mM Mg2+; range for both random oligos; EMSA: 10 mM Tris-HCl pH 7.5, 50 mM NaCl, 6 mM MgCl2, 37 C 10 min; MST: same plus 0.05% Tween-20, 22 C; settings: protein: recombinant; label: 5'-Cy5; single strand

T1 sequence (P06612 whole entry): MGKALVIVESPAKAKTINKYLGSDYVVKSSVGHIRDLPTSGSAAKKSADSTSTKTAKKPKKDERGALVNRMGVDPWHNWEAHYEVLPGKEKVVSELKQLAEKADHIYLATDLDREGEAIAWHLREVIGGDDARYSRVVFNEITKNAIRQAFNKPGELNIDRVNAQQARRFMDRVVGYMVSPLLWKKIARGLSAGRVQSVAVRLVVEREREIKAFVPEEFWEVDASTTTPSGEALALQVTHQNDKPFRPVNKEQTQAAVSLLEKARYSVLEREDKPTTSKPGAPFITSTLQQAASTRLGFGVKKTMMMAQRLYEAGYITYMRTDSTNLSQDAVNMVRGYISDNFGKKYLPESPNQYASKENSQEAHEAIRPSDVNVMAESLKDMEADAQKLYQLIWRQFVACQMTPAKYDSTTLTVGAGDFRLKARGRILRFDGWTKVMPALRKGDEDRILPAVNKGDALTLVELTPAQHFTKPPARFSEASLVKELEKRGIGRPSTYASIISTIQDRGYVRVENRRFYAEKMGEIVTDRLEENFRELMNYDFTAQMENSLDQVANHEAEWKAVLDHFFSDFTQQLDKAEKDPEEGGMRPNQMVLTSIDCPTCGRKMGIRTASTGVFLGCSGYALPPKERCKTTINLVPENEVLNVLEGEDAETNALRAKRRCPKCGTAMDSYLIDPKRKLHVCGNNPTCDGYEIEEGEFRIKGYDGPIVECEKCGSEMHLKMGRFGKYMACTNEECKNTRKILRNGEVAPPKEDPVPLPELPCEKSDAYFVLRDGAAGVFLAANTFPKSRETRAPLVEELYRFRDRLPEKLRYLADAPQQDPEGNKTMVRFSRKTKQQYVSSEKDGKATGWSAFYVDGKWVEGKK

Binder	Kd [2] [nM]	Kd [3] [nM]	further results
CGCAAAAAAAAAAAAAAAAAAAACGC (ssDNA) [Poly-A, unlabeled]			binding result [1]: binds
GCGTTTTTTTCTTCATTATTTTTGCG (ssDNA) [Consensus F]	190 ± 87		
GCGCACGTAATCCGCAGTGCGGTGCG (ssDNA) [Random F]		~324	
CGCTCCGCACTGCGGATTACGTGCGC (ssDNA) [Random R]		~324	
CGCAAAAATAATGAAGAAAAAAACGC (ssDNA) [Consensus R]	207 ± 76		

— paper PMC9352719, “Interaction between transcribing RNA polymerase and topoisomerase I prevents R-loop formation in E. coli”
